Measured values: patent US20130337528A1

Biological target: goat IgG (goat)
Experiment: binding capacity used to set the particle load for goat serum; method not stated
Conditions: scale: mg IgG per 5 g wet weight polymer particles

IgG binding capacity: > 220
Substance: PhaC-(GB1)3 polymer particles (PHB polymer particles displaying (GB1)3, from plasmid pET-14b PhaC-(GB1)3) (from UniProt P23608 1-589; P06654 228-282; P06654 228-282; P06654 228-282)
